Measured values from patent publication US20080124335A1 (NATIONAL CEREBRAL AND CARDIOVASCULAR CENTER, published 2008).
No end group written: not given here.

Tests used:
human FM-3 [1] = target: T1, human FM-3 (human, UniProt Q9HB89 24-426); experiment: cell-based or functional assay
T1 sequence: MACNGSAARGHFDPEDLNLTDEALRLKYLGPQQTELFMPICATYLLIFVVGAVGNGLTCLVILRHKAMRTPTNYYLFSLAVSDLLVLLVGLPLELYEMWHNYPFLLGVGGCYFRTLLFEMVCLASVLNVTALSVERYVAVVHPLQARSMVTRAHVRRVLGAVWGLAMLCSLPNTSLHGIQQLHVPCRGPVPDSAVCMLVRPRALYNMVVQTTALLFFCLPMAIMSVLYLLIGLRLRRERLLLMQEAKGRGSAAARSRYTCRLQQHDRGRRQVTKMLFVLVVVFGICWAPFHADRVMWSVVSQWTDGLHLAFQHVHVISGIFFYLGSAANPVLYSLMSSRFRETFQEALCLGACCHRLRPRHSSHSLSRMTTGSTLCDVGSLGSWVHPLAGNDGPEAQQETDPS

human TGR1 [2] = target: T2, human TGR1 (human, UniProt Q9GZQ4 1-415); experiment: cell-based or functional assay
T2 sequence (Q9GZQ4 other isoform, or with tags, fused parts or gaps): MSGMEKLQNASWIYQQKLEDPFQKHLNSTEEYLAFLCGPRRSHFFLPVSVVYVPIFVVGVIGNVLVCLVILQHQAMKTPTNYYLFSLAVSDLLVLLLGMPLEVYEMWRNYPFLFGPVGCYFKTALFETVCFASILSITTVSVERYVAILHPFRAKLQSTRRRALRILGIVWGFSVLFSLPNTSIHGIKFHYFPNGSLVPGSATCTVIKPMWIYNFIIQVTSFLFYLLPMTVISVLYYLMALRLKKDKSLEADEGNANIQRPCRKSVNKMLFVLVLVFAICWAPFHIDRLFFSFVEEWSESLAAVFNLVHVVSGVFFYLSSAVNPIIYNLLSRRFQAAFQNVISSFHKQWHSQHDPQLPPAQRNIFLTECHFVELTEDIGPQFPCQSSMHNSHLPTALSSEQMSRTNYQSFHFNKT

human FM-3 [3] = target: T1, human FM-3; experiment: radioligand competition: crude membrane fraction (10 µg) of CHO cells expressing human FM-3, 50 pM [^125I-Tyr^0]-NMS, filtration
Experimental: (§1) The receptor binding test was conducted by an improvement of the Gottschall, et al. method (Gottschall, P. E., et al., Endocrinology, 127, 272, 1990). A crude cell membrane fraction was prepared from human FM-3 or human TGR1-expressed CHO cells. Also, human NMS ([Tyr⁰]-NMS) added with Tyr at the N terminus was radioactively labeled with ¹²⁵I and then purified on HPLC. The crude cell membrane fraction (10 μg) and the radiolabeled peptide (50 pM) were reacted at room temperature for 2 hours in a buffer supplemented with 0.05% CHAPS and 1% BSA in the presence of a competitive peptide. The reaction product was filtered to separate the bound from the unbound radiolabeled peptide. The radioactivity was measured with a TopCount liquid scintillation counter (Packard).

human TGR1 [4] = target: T2, human TGR1; experiment: radioligand competition: crude membrane fraction (10 µg) of CHO cells expressing human TGR1, 50 pM [^125I-Tyr^0]-NMS, filtration
Experimental: as §1

intracellular Ca ion level increase (calcium-mobilization assay, FLIPR), EC50 (human FM-3 [1]): 0.065 nM
intracellular Ca ion level increase (calcium-mobilization assay, FLIPR), EC50 (human TGR1 [2]): 0.091 nM
IC50 (human FM-3 [3]): 1.2 nM
IC50 (human TGR1 [4]): 0.1 nM
Binder: ILQRGSGTAAVDFTKKDHTATWGRPFFLFRPRN (ends and bridges not checked, also called human NMS; NMS) [human neuromedin S]
